Measured values from patent US20190177370A1 (TOKYO UNIVERSITY OF PHARMACY AND LIFE SCIENCES, published 2019).
Square brackets hold non-standard residues; d marks the D form. Primed or numbered codes have the meaning given here. * marks the point of attachment. m‑dPEG(4) = m-dPEG(4) acid, coupled to Acp, with Acp forms R^111 of Formula (4); Propanoyl(3,3-Ph2) = O=C(CC(c1ccccc1)c1ccccc1)*; 2Nal = N[C@@H](Cc1ccc2ccccc2c1)C(=O)O; Chg = N[C@H](C(=O)O)C1CCCCC1; Ahx = NCCCCCC(=O)O

T1: myostatin (UniProt O14793 267-375, limits assumed)
T1 sequence (looked up): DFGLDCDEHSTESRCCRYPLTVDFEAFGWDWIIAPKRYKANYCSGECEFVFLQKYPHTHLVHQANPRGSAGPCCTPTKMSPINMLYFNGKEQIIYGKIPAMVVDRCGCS

B1: nPDM-75 (peptide)
peptide: H-WYIRWIR[Chg]QIWPR[Chg]RL-NH2
SMILES: CC[C@H](C)[C@H](NC(=O)[C@H](Cc1ccc(O)cc1)NC(=O)[C@@H](N)Cc1c[nH]c2ccccc12)C(=O)N[C@@H](CCCNC(=N)N)C(=O)N[C@@H](Cc1c[nH]c2ccccc12)C(=O)N[C@H](C(=O)N[C@@H](CCCNC(=N)N)C(=O)N[C@H](C(=O)N[C@@H](CCC(N)=O)C(=O)N[C@H](C(=O)N[C@@H](Cc1c[nH]c2ccccc12)C(=O)N1CCC[C@H]1C(=O)N[C@@H](CCCNC(=N)N)C(=O)N[C@H](C(=O)N[C@@H](CCCNC(=N)N)C(=O)N[C@@H](CC(C)C)C(N)=O)C1CCCCC1)[C@@H](C)CC)C1CCCCC1)[C@@H](C)CC
B2: nPDM-77 (peptide)
peptide: H-WYIRWIP[Chg]QIWSR[Chg]RL-NH2
SMILES: CC[C@H](C)[C@H](NC(=O)[C@H](CCC(N)=O)NC(=O)[C@@H](NC(=O)[C@@H]1CCCN1C(=O)[C@@H](NC(=O)[C@H](Cc1c[nH]c2ccccc12)NC(=O)[C@H](CCCNC(=N)N)NC(=O)[C@@H](NC(=O)[C@H](Cc1ccc(O)cc1)NC(=O)[C@@H](N)Cc1c[nH]c2ccccc12)[C@@H](C)CC)[C@@H](C)CC)C1CCCCC1)C(=O)N[C@@H](Cc1c[nH]c2ccccc12)C(=O)N[C@@H](CO)C(=O)N[C@@H](CCCNC(=N)N)C(=O)N[C@H](C(=O)N[C@@H](CCCNC(=N)N)C(=O)N[C@@H](CC(C)C)C(N)=O)C1CCCCC1
B3: nPDM-71 (peptide)
peptide: H-WYIRWIR[Chg]QIWSK[Chg]RL-NH2
SMILES: CC[C@H](C)[C@H](NC(=O)[C@H](CCC(N)=O)NC(=O)[C@@H](NC(=O)[C@H](CCCNC(=N)N)NC(=O)[C@@H](NC(=O)[C@H](Cc1c[nH]c2ccccc12)NC(=O)[C@H](CCCNC(=N)N)NC(=O)[C@@H](NC(=O)[C@H](Cc1ccc(O)cc1)NC(=O)[C@@H](N)Cc1c[nH]c2ccccc12)[C@@H](C)CC)[C@@H](C)CC)C1CCCCC1)C(=O)N[C@@H](Cc1c[nH]c2ccccc12)C(=O)N[C@@H](CO)C(=O)N[C@@H](CCCCN)C(=O)N[C@H](C(=O)N[C@@H](CCCNC(=N)N)C(=O)N[C@@H](CC(C)C)C(N)=O)C1CCCCC1
B4: nPDM-66 (peptide)
peptide: H-WYIRWIK[Chg]QIWSK[Chg]RL-NH2
SMILES: CC[C@H](C)[C@H](NC(=O)[C@H](CCC(N)=O)NC(=O)[C@@H](NC(=O)[C@H](CCCCN)NC(=O)[C@@H](NC(=O)[C@H](Cc1c[nH]c2ccccc12)NC(=O)[C@H](CCCNC(=N)N)NC(=O)[C@@H](NC(=O)[C@H](Cc1ccc(O)cc1)NC(=O)[C@@H](N)Cc1c[nH]c2ccccc12)[C@@H](C)CC)[C@@H](C)CC)C1CCCCC1)C(=O)N[C@@H](Cc1c[nH]c2ccccc12)C(=O)N[C@@H](CO)C(=O)N[C@@H](CCCCN)C(=O)N[C@H](C(=O)N[C@@H](CCCNC(=N)N)C(=O)N[C@@H](CC(C)C)C(N)=O)C1CCCCC1
B5: nPDM-70 (peptide)
peptide: H-WYIRWIK[Chg]QIWSR[Chg]RL-NH2
SMILES: CC[C@H](C)[C@H](NC(=O)[C@H](CCC(N)=O)NC(=O)[C@@H](NC(=O)[C@H](CCCCN)NC(=O)[C@@H](NC(=O)[C@H](Cc1c[nH]c2ccccc12)NC(=O)[C@H](CCCNC(=N)N)NC(=O)[C@@H](NC(=O)[C@H](Cc1ccc(O)cc1)NC(=O)[C@@H](N)Cc1c[nH]c2ccccc12)[C@@H](C)CC)[C@@H](C)CC)C1CCCCC1)C(=O)N[C@@H](Cc1c[nH]c2ccccc12)C(=O)N[C@@H](CO)C(=O)N[C@@H](CCCNC(=N)N)C(=O)N[C@H](C(=O)N[C@@H](CCCNC(=N)N)C(=O)N[C@@H](CC(C)C)C(N)=O)C1CCCCC1
B6: nPDM-69 (peptide)
peptide: H-YYIR[2Nal]IKIQIWSKLRL-NH2
SMILES: CC[C@H](C)[C@H](NC(=O)[C@H](CCC(N)=O)NC(=O)[C@@H](NC(=O)[C@H](CCCCN)NC(=O)[C@@H](NC(=O)[C@H](Cc1ccc2ccccc2c1)NC(=O)[C@H](CCCNC(=N)N)NC(=O)[C@@H](NC(=O)[C@H](Cc1ccc(O)cc1)NC(=O)[C@@H](N)Cc1ccc(O)cc1)[C@@H](C)CC)[C@@H](C)CC)[C@@H](C)CC)C(=O)N[C@@H](Cc1c[nH]c2ccccc12)C(=O)N[C@@H](CO)C(=O)N[C@@H](CCCCN)C(=O)N[C@@H](CC(C)C)C(=O)N[C@@H](CCCNC(=N)N)C(=O)N[C@@H](CC(C)C)C(N)=O
B7: nPDM-72 (peptide)
peptide: H-WYIRWIR[Chg]QIWSR[Chg]RL-NH2
SMILES: CC[C@H](C)[C@H](NC(=O)[C@H](CCC(N)=O)NC(=O)[C@@H](NC(=O)[C@H](CCCNC(=N)N)NC(=O)[C@@H](NC(=O)[C@H](Cc1c[nH]c2ccccc12)NC(=O)[C@H](CCCNC(=N)N)NC(=O)[C@@H](NC(=O)[C@H](Cc1ccc(O)cc1)NC(=O)[C@@H](N)Cc1c[nH]c2ccccc12)[C@@H](C)CC)[C@@H](C)CC)C1CCCCC1)C(=O)N[C@@H](Cc1c[nH]c2ccccc12)C(=O)N[C@@H](CO)C(=O)N[C@@H](CCCNC(=N)N)C(=O)N[C@H](C(=O)N[C@@H](CCCNC(=N)N)C(=O)N[C@@H](CC(C)C)C(N)=O)C1CCCCC1
B8: nPDM-76 (peptide)
peptide: H-WYIRWIR[Chg]PIWSR[Chg]RL-NH2
SMILES: CC[C@H](C)[C@H](NC(=O)[C@H](Cc1ccc(O)cc1)NC(=O)[C@@H](N)Cc1c[nH]c2ccccc12)C(=O)N[C@@H](CCCNC(=N)N)C(=O)N[C@@H](Cc1c[nH]c2ccccc12)C(=O)N[C@H](C(=O)N[C@@H](CCCNC(=N)N)C(=O)N[C@H](C(=O)N1CCC[C@H]1C(=O)N[C@H](C(=O)N[C@@H](Cc1c[nH]c2ccccc12)C(=O)N[C@@H](CO)C(=O)N[C@@H](CCCNC(=N)N)C(=O)N[C@H](C(=O)N[C@@H](CCCNC(=N)N)C(=O)N[C@@H](CC(C)C)C(N)=O)C1CCCCC1)[C@@H](C)CC)C1CCCCC1)[C@@H](C)CC
B9: nPDM-65 (peptide)
peptide: H-WYIRWIKIQIWSK[Chg]RL-NH2
SMILES: CC[C@H](C)[C@H](NC(=O)[C@H](CCC(N)=O)NC(=O)[C@@H](NC(=O)[C@H](CCCCN)NC(=O)[C@@H](NC(=O)[C@H](Cc1c[nH]c2ccccc12)NC(=O)[C@H](CCCNC(=N)N)NC(=O)[C@@H](NC(=O)[C@H](Cc1ccc(O)cc1)NC(=O)[C@@H](N)Cc1c[nH]c2ccccc12)[C@@H](C)CC)[C@@H](C)CC)[C@@H](C)CC)C(=O)N[C@@H](Cc1c[nH]c2ccccc12)C(=O)N[C@@H](CO)C(=O)N[C@@H](CCCCN)C(=O)N[C@H](C(=O)N[C@@H](CCCNC(=N)N)C(=O)N[C@@H](CC(C)C)C(N)=O)C1CCCCC1
B10: 3,3-diphenylpropionyl-nPDM-85 (peptide)
peptide: {Propanoyl(3,3-Ph2)}-YIRWIR[Chg]QIWSR[Chg]PL-NH2
SMILES: CC[C@H](C)[C@H](NC(=O)[C@H](Cc1ccc(O)cc1)NC(=O)CC(c1ccccc1)c1ccccc1)C(=O)N[C@@H](CCCNC(=N)N)C(=O)N[C@@H](Cc1c[nH]c2ccccc12)C(=O)N[C@H](C(=O)N[C@@H](CCCNC(=N)N)C(=O)N[C@H](C(=O)N[C@@H](CCC(N)=O)C(=O)N[C@H](C(=O)N[C@@H](Cc1c[nH]c2ccccc12)C(=O)N[C@@H](CO)C(=O)N[C@@H](CCCNC(=N)N)C(=O)N[C@H](C(=O)N1CCC[C@H]1C(=O)N[C@@H](CC(C)C)C(N)=O)C1CCCCC1)[C@@H](C)CC)C1CCCCC1)[C@@H](C)CC
B11: nPDM-64 (peptide)
peptide: H-WYIRWIK[Chg]QIWSKLRL-NH2
SMILES: CC[C@H](C)[C@H](NC(=O)[C@H](CCC(N)=O)NC(=O)[C@@H](NC(=O)[C@H](CCCCN)NC(=O)[C@@H](NC(=O)[C@H](Cc1c[nH]c2ccccc12)NC(=O)[C@H](CCCNC(=N)N)NC(=O)[C@@H](NC(=O)[C@H](Cc1ccc(O)cc1)NC(=O)[C@@H](N)Cc1c[nH]c2ccccc12)[C@@H](C)CC)[C@@H](C)CC)C1CCCCC1)C(=O)N[C@@H](Cc1c[nH]c2ccccc12)C(=O)N[C@@H](CO)C(=O)N[C@@H](CCCCN)C(=O)N[C@@H](CC(C)C)C(=O)N[C@@H](CCCNC(=N)N)C(=O)N[C@@H](CC(C)C)C(N)=O

molecular target: T1, myostatin; assay: cell-based or functional assay

Myostatin inhibitory activity at 1 µM (luciferase reporter assay), ≥ 40 % inhibition:
{m‑dPEG(4)-Ahx}-YYIEWIKIQIISKLRL-NH2 [PDM-29]
{m‑dPEG(4)-Ahx}-WWIEWIKIQIISKLRL-NH2 [PDM-30]
B4
H-WYFRWIKIQIWSKLRL-NH2 [nPDM-67]
B6
B9
B11

Myostatin inhibitory activity at 0.3 µM (luciferase reporter assay), ≥ 40 % inhibition:
B1
H-WYIRWIR[Chg]QIWSR[Chg]PL-NH2 [nPDM-73]
H-AWYIRWIKIQIWSKLRL-NH2 [A-nPDM-55/E31R]
B2
B3
B4
B5
B6
B7
B8
B9
B10
B11
